{"source": "paper PMC5510004", "about": "“Recruitment and positioning determine the specific role of the XPF‐ERCC1 endonuclease in interstrand crosslink repair”", "binders": {"B1": {"name": "3' flap DNA substrate (F1+F2+F3) (dsDNA)", "DNA 1": "CGCGATGCGGATCCAA", "DNA 2": "CCTAGACTTAAGAGGCCAGACTTGGATCCGCATCGC", "DNA 3": "GGCCTCTTAAGTCTAGG"}}, "key": {"[1]": {"biological_target": "T1, XPF G314E;ERCC1 wild type (hsERCC1) (Xenopus laevis;Homo sapiens?, UniProt A0A8J0PXV9;P07992 1-897;1-297, G314E|)", "T1 sequence 1": "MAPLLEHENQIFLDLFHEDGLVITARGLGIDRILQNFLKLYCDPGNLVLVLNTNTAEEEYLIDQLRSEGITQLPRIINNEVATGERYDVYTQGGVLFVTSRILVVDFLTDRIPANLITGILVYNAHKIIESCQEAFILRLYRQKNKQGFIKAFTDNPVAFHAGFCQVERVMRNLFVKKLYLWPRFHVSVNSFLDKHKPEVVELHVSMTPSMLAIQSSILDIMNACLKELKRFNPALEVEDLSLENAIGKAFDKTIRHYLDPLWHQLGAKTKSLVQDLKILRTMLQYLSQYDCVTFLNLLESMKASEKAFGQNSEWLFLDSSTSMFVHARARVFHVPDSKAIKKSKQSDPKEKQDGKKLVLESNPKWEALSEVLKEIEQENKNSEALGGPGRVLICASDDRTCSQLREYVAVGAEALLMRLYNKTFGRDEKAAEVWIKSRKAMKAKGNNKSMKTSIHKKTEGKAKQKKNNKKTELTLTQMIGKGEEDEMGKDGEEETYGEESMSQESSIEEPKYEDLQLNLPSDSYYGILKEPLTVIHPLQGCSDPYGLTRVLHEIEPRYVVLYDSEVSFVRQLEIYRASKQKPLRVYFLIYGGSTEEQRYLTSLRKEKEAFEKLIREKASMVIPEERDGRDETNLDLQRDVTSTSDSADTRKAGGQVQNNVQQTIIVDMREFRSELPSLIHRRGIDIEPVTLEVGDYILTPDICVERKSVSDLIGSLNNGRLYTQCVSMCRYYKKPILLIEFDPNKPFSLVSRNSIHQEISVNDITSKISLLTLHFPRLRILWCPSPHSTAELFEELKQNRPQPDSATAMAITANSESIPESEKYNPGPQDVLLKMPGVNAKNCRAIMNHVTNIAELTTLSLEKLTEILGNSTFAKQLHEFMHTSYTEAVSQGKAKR", "T1 sequence 2": "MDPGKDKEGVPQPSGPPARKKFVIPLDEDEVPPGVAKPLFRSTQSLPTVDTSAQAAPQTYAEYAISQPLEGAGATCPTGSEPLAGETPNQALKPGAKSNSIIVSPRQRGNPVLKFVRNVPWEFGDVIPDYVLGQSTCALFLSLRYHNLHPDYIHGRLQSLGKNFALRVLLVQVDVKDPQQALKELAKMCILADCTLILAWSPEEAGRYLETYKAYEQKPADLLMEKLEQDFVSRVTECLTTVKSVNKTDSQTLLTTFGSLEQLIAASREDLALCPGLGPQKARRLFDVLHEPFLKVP", "experiment": "fluorescence anisotropy; 2 mM Ca2+; comparable to wild type; 25 mM Hepes pH 8.0, 15% glycerol, 0.1 mg/ml BSA, 2 mM CaCl2, 10 nM DNA, 1 h at room temperature", "settings": "protein: recombinant;recombinant; tags: FLAG;His; copies: 1;1; label: 5'-FAM on F1; three strands 1:1:1"}, "[2]": {"biological_target": "T2, XPF S767F;ERCC1 wild type (hsERCC1) (Xenopus laevis;Homo sapiens?, UniProt A0A8J0PXV9;P07992 1-897;1-297, S767F|)", "T2 sequence 1": "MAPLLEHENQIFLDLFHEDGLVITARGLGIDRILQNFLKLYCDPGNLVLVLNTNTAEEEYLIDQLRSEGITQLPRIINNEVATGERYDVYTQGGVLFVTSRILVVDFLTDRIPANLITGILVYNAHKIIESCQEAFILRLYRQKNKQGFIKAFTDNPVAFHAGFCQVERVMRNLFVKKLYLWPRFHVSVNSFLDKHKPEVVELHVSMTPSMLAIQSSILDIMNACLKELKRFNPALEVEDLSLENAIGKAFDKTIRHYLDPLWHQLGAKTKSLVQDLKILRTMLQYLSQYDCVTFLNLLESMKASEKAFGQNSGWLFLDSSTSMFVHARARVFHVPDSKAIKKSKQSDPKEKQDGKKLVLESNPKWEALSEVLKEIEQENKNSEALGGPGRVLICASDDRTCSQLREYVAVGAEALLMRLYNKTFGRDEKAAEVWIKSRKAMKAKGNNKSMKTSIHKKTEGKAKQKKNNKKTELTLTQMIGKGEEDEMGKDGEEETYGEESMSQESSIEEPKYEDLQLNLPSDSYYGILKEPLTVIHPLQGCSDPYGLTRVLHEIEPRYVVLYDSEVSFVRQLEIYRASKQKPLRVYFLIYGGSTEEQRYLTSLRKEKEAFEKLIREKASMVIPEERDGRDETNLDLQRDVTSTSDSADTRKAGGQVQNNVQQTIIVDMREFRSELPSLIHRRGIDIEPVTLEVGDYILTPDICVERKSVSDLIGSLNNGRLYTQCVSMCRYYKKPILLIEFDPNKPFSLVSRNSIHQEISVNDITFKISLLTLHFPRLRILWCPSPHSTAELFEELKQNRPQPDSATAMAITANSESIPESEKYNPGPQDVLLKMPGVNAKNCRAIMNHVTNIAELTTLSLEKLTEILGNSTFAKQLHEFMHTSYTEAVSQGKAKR", "T2 sequence 2": "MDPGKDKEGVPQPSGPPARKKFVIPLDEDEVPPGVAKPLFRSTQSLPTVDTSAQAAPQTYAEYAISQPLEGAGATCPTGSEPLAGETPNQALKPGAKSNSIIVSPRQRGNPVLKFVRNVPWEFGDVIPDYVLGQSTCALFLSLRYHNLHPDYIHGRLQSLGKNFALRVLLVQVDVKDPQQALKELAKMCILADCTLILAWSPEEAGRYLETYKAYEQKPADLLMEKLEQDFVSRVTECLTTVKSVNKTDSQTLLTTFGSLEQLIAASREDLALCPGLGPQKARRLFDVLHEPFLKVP", "experiment": "fluorescence anisotropy; 2 mM Ca2+; comparable to wild type; 25 mM Hepes pH 8.0, 15% glycerol, 0.1 mg/ml BSA, 2 mM CaCl2, 10 nM DNA, 1 h at room temperature", "settings": "protein: recombinant;recombinant; tags: FLAG;His; copies: 1;1; label: 5'-FAM on F1; three strands 1:1:1"}}, "data": [{"binder": "B1", "values": [{"measurement": "binding result", "setting": "[1]", "result": "binds"}, {"measurement": "binding result", "setting": "[2]", "result": "binds"}]}]}
